Measurements published in patent US20080233103.

Test system: N-formyl-Met-Ala

Substance: recombinant histidine-tagged Mycobacterium tuberculosis peptide deformylase (mPDF), wild-type construct from pET-mPDF
- Michalis-Menton constant (Km): 4.1 ± 0.2 mM
- catalytic efficiency: 1220 ± 6 M⁻¹ s⁻¹
- velocity maxima (Vmax): 13.3±0.7 µmoles/min/mg protein
